Results as given in article PMC8217500.
pKd: −log10 of the molar value.

What was measured:
[1] = molecular target: Fc-tagged SARS-CoV-2 spike receptor-binding domain (RBD) (SARS-CoV-2) (UniProt P0DTC2); assay: BLI; Fc-tagged RBD (20 ug/ml) loaded on anti-hIgG Fc Capture (AHC) biosensors, Fab in solution; room temperature; 1x PBS pH 7.4, 0.01% BSA, 0.002% Tween 20; 1:1 binding model
[2] = molecular target: Fc-tagged SARS-CoV-2 receptor-binding domain (RBD), wild type (SARS-CoV-2) (UniProt P0DTC2); assay: BLI; Fc-tagged RBD (20 ug/ml) loaded on anti-hIgG Fc Capture (AHC) biosensors, Fab in solution at four to five concentrations; Octet Red96e, room temperature, 1x kinetics buffer (1x PBS pH 7.4, 0.01% w/v BSA, 0.002% v/v Tween 20); 1:1 binding model

## COVD21-C8 Fab, Y58 variant (heavy chain F58Y)
[1]
  pKd: 5.70

## COVD21-C8 F58Y Fab
[2]
  pKd: < 6.00
